Experimental data: the DeepSol protein solubility set

Assay: soluble on expression in E. coli; label from the status in PepcDB or PDB records

Row | Sequence | soluble on expression in E. coli
1 | MSLTELLNNLEYKKEQLKKLLLRIHEGESVEKLKEEFRTVLSNISPLEIPLIEQELVKEGISARDIAKMCDLHVELFREAVKGTGEVEEKDLPEGHPLKTLYQENKEIMKDAEMLNLYAKTLATTKDERMREEILGVLEEIVSSLRMVGFTHYNREEMLIFPYIERRGLTVIATVLWTKHDEIRAMIKQLAELLRKREEMPWEEFVEKFKAKAGEVAFALSDMVFRENNIFYPTLKALLSEGEWKAIKMQEDEIGYYKVKPPEWDPGEDVKPLHPWEINPELNVEQLLTLPKEVQQALRGQPLEFDKTQLKREEDIDLGTGYLNIEELKAIFEALPVDVTFIDKDDRVRFFSPGERIFTRTPSVLGRPVQLCHPPKSVYVVNKILKAFKEGRKKEATFWLRLREKYVYIKYVPLFNEKGEYIGTLEMTMDIAPYKKIEGEKRLLDWRDEGHHHHHH | soluble
2 | TQAMEGLLHYINPAHAISLLSALNEERLKGQLCDVLLIVGDQKFRAHKNVLAASSEYFQSLFTNKENESQTVFQLDFCEPDAFDNVLNYIYSSSLFVEKSSLAAVQELGYSLGISFLTNIVSKTPQAPFPTCPNRKKVFVEDDENSSQKRSVIVCQSRNEAQGKTVSQNQPDVSHTSRPSPSIAVKANTNKPHVPKPIEPLHNLSLTEKSWPKDSSVVYAKSLEHSGSLDDPNRISLVKRNAVLPSKPLQDREAMDDKPGVSGQLPKGKALELALKRPRPPVLSVCSSSETPYLLKETNKGNGQGEDRNLLYYSKLGLVIPSSGSGSGNQSIDRSGPLVKSLLRRSLSMDSQVPVYSPSIDLKSSQGSSSVSSDAPGNVLCALSQKSSLKDCSEKTALDDRPQVLQPHRLRSFSASQSTDREGASPVTEVRIKTEPSSPLSDPSDIIRVTVGDAATTAAASSSSVTRDLSLKTEDDQKDMSRLPAKRRFQADRRLPFKKLKVNEHGSPVSEDNFEEGSSPTLLDADFPDSDLNKDEFGELEGTRPNKKFKCKHCLKIFRSTAGLHRHVNMYHNPEKPYACDICHKRFHTNFKVWTHCQTQHGIVKNPSPASSSHAVLDEKFQRKLIDIVREREIKKALIIKLRRGKPGFQGQSSSQAQQVIKRNLRSRAKGAYICTYCGKAYRFLSQFKQHIKMHPGEKPLGVNKVAKPKEHAPLASPVENKEVYQCRLCNAKLSSLLEQGSHERLCRNAAVCPYCSLRFFSPELKQEHESKCEYKKLTCLECMRTFKSSFSIWRHQVEVHNQNNMAPTENFSLPVLDHNGDVTGSSRPQSQPEPNKVNHIVTTKDDNVFSDSSEQVNFDSEDSSCLPEDLSLSKQLKIQVKEEPVEEAEEEAPEASTAPKEAGPSKEASLWPCEKCGKMFTVHKQLERHQELLCSVKPFICHVCNKAFRTNFRLWSHFQSHMSQASEESAHKESEVCPVPTNSPSPPPLPPPPPLPKIQPLEPDSPTGLSENPTPATEKLFVPQESDTLFYHAPPLSAITFKRQFMCKLCHRTFKTAFSLWSHEQTHN | soluble
3 | MGSDKIHHHHHHMQKTPALLSDIGNNEDASVYQISPDLALVQTLDFITPIVDSAYHFGAIAAANALSDVFAMGAEVINALNIVGFDTCNHDLNILKELLEGANDKVKECNALVVGGHTIESTELFFGLSVTGKVHPSKFIANNTSKIGDCIILTKPLGTGILSTALKAQMLNQKHLDIMLKNMIELNYKASQIALKFHPSAMSDVTGFGLLGHLKEMLNKNISFEIFESELPFLDGVKEYFNMGLIPAGAYKNLEFIKELTPDLNEEKLLLCDPQTSGGLLISISEKDSLECLKKLEDENIQAKIIAKVVNKQENDIIIS | not soluble
4 | MHESARHIVDLYQRHARAWDQRRRANPEAFEGEQAWLERFRRVMGQGGQVLDLGCGGGEPIARNLIEHQCAVTGVDSSATLLDHCRQRFAGQQWIHADMRSLALDQDFAGILAWNSLFHLSPDDQRAMFTVFERHAGPGCALMFTSGPEAGEAIGEFEGEALYHASLSPGEYCTLLDTHGFEVVQHISEDPDCCGFTVWLARAIDWGLEHHHHHH | not soluble
5 | RDILEVLQDIHMETGETVAIATKNDIYLQYIQIIESVHALRFHVDENAIRPLTMSSNGWMLMSTMNDKAIDNTVRRANTITQKDGIRFEVDDMMARIRQVREQGYASAEHIPFVGGGTICVLLPMTIQGQPVTMGLGGALDRIKQNYDRYLELLLNGVQQLKKSDSFHQPIELAH | not soluble
6 | MGRRRGFLTMRIPRIYHPEPLTSHSHIALCEDAANHIGRVLRMGPGQALQLFDGSNQVFDAEITSASKKSVEVKVLEGQIDDRESPLHIHLGQVMSRGEKMEFTIQKSIELGVSLITPLFSERCGVKLDSERLNKKLQQWQKIAIAACEQCGRNRVPEIRPAMDLEAWCAEQDEGLKLNLHPRASNSINTLPLPVERVRLLIGPEGGLSADEIAMTARYQFTDILLGPRVLRTETTALTAITALQVRFGDLGLEHHHHHH | not soluble
7 | MAHHHHHHMVWKGSRERGVQEYRKKSKGNKPTKGEKVSKKGVSSSRQPKQRELLSAKQQQQQNRKNEELRAALAGAFSTEVSSSNAGPAFDGYGKGSPTDRLQFGYAPAVAAEAVAYHSTISTDAWIEARRTRYRTAIVEQKKLRRPNCEPITSILKLQGHWRSTELFEREVHGSHAVAQDKVDDILDTFVSRQRVA | not soluble
8 | MNAVHFGAGNIGRGFIGEILAKNGFHITFVDVNETIIQALKERKSYTIELADASHQQINVENVTGLNNMTEPEKVVEAIAEADLVTTAIGPNILPRIAELIAQGIDARAEANCQKPLDIIACENMIGGSTFLAEEVAKYLKNPAYAEQWIGFPDAAVDRIVPLQKHEDPLFVQVEPFCEWVIDDTNRKAKEIQLEGVHYVAD | not soluble
9 | MGDELHVIVARSVNVTHKEPPVVPDEQRREMVGALKPVDEAHLGHSEDIFIPIERIEPDIIALGYDQHHDDEQLEAALSARGIDCDICRASPLETEAADRVLSTGRIIDRILDERS | not soluble
10 | MPAKDVQICPIAVDTTVFRSRTWDRLKFEIEYGLQRGTTANSYLISADKIALFDPPGESFTDNFVGTLIQRLDLNSLDYVILGHVNANRAHTLKLLLSLAPQATIICSNPAAQNLEKLLADAEVNNPIQVMKGNDHLDLGRGHELTFIPTPSPRYPGQLCTYDPRTEILFTDKLFGAHVCGDQVFDEGWTIYQEDRRYYFDCLLAPAAAQVSAALNKLEAYPAQTYAPSHGPLVRYGLRELTRNYQQWLEHHHHHH | soluble
11 | MFEPMMEMSDDAVIKVVGVGGGGGNAVEHMVRESIEGVEFMSINTDAQALRKTSVGTVIQIGGNITKGLGAGANPQVGRDAALEDKERIKEFLTGADMVFIAAGMGGGTGTGAAPVIAEVAKELGILTVAVVTKPFSFEGKKRLAFAEQGIEELSKHVDSLITIPNEKLLKVLGRGITLLEAFASANNVLKNAVQGIAELITRPGMINVDFADVRTVMSEMGHAMMGSGVARGEDRAEEAAEMAISSPLLEDIDLAGARGVLVNITAGLDMRLDEFETVGNTVKAFASDNATVVIGTSLDPDMADEIRVTVVATGIGNEKKPDITLVAGGKSKVAPVSAPVTSRVEEKAAQPLHERVEVKTQPAAAPSHSSASQSVAPKPEKESGYLDIPAFLRRQAD | not soluble
12 | MDMTDQAFFKYVRNFNEYQKRSMFGGIGLFSDDAMFALVSNDCCYLRGGNGLDEEFTLLNCEKYKHVKKQTTATVNYYDVTDLFESGFTGLDDLLRKSIDCSIKERKYQKSSASKRLRDLPNMQLTLERMVKKAGIDDVETFLELGPVEVFNKVRVAYGNDVDVKLLWKFAGAIDGVHWKLIQEPRKKQLLALCE | not soluble
13 | MTLLASLRDWLKAQQLDAVLLSSRQNKQPHLGISTGSGYVVISRESAHILVDSRYYVEVEARAQGYQLHLLDATNTLTTIVNQIIADEQLQTLGFEGQQVSWETAHRWQSELNAKLVSATPDVLRQIKTPEEVEKIRLACGIADRGAEHIRRFIQAGMSEREIAAELEWFMRQQGAEKASFDTIVASGWRGALPHGKASDKIVAAGEFVTLDFGALYQGYCSDMTRTLLVNGEGVSAESHLLFNVYQIVLQAQLAAISAIRPGVRCQQVDDAARRVITEAGYGDYFGHNTGHAIGIEVHEDPRFSPRDTTTLQPGMLLTVEPGIYLPGQGGVRIEDVVLVTPQGAEVLYAMPKTVLLTGEA | soluble
14 | MAHHHHHHMARDYDAGYKLLFAMPEMMRDLLREFIRSDWLRALDYSTLERVSGNYVADNMRQRASDMVWRVDAGDPWGHLYVLLEFQSTIDRYMAPRMAAYTALLHQELVRAGQVLPDRRVPAALSIVLYNGDTPWSACTNIRDVVVSLPNGLAACQLHQQHTLLDINRLSEAQLPDDNLAALLFRIERAADYDTVVSLMIECRMRLRHEPKLKLAFAKTFAALLCGQRGSVLTPDQVFQLMEVDMQVVGANLQRFTHKLREEARQEGEARMLQKLLAERFGSLHASVVQRIEIATPEELERWGIQLLRAEVIEDVFRA | soluble
15 | MVSTDWKSDLRQRGYRLTPQRQLVLEAVDTLEHATPDDILGEVRKTASGINISTVYRTLELLEELGLVSHAHLGHGAPTYHLADRHHHIHLVCRDCTNVIEADLSVAADFTAKLREQFGFDTDMKHFAIFGRCESCSLKGSTTDS | soluble
16 | MAHHHHHHMSEEKGAYLVFDNASNGTLFIVWKKEKVENALMFIKPTKEVPEFKFVNRNGKNELIRNLQSDKKLFYSGICQFVKEAKDIKGKLTLLQHFDSSFPIKVDLYFLKGSKVMPLNTGEPFVVQDIDAMSVLPKGSSSLKVKTMAKDMFVSRGNTEGASISF | not soluble
17 | MTDSPGGVAPASPVEDASDASLGQPEEGAPCQVVLQGAELNGILQAFAPLRTSLLDSLLVMGDRGILIHNTIFGEQVFLPLEHSQFSRYRWRGPTAAFLSLVDQKRSLLSVFRANQYPDLRRVELAITGQAPFRTLVQRIWTTTSDGEAVELASETLMKRELTSFVVLVPQGTPDVQLRLTRPQLTKVLNATGADSATPTTFELGVNGKFSVFTTSTCVTFAAREEGVSSSTSTQVQILSNALTKAGQAAANAKTVYGENTHRTFSVVVDDCSMRAVLRRLQVGGGTLKFFLTTPVPSLCVTATGPNAVSAVFLLKPQK | soluble
18 | SSSLKIASTQEARQYFDTDRVVVDAVGSDFTDVGAVIAMDYETDVIDAADATKFGIPVFAVTKDAQAISADELKKIFHIIDLENKFDATVNAREIETAVNNYEDSILPPFFKSLKEYVSRYLIQFDCPGHQGGQYYRKHPAGREFYDFFGETVFRADLCNADVALGDLLIHEGPAVAAEKHAARVYNADKTYFVLGGSSNANNTVTSALVSNGDLVLFDRNNHKSVYNSALAMAGGRPVYLQTNRNPYGFIGGIYDSDFDEKKIRELAAKVDPERAKWKRPFRLAVIQLGTYDGTIYNAHEVVKRIGHLCDYIEFDSAWVGYEQFIPMMRNSSPLLIDDLGPEDPGIIVVQSVHKQQAGFSQTSQIHKKDSHIKGQLRYCDHKHFNNSFNLFMSTSPFYPMYAALDVNAAMQEGEAGRKLWHDLLITTIEARKKLIKAGSMFRPFVPPVVNGKKWEDGDTEDMANNIDYWRFEKGAKWHAYEGYGDNQYYVDPNKFMLTTPGINPETGDYEDFGVPATIVANYLRDHGIIPEKSDLNSILFLMTPAETPAKMNNLITQLLQLQRLIEEDAPLKQVLPSIYAANEERYNGYTIRELCQELHDFYKNNNTFTYQKRLFLREFFPEQGMLPYEARQEFIRNHNKLVPLNKIEGEIALEGALPYPPGVFCVAPGEKWSETAVKYFTILQDGINNFPGFAPEIQGVYFKQEGDKVVAYGEVYDAEVAKNDDRYNN | soluble
